The values below come from patent US20050085416A1, “Biologically active complex” (priority 2002, published 2005).

Where two headings read alike, the source gives them in different places.

A short description of assay [1]: Ca2+ titration in the presence of chromophoric chelator quin 2. It is filed as binding. Conditions: for Ka, calcium association constant: 2 mM Tris/HCl, chelator quin 2; for Kd: read-out: KD, calcium. The source says: To study the Ca^2+ binding equilibrium, the proteins listed in table 1 including the D87A BAMLET obtained as described in Example 7, and HAMLET, was titrated with calcium in the presence of a chromophoric chelator, quin 2, for which the absorbance at 263 nm decreases (approx. 85%) upon Ca^2+-binding. The method relies on competition for calcium between the protein and chelator, and can be used to quantitate high affinity sites (ca. 10^7-5·10^9 M^−1 at low salt, and ca. 5 10^5-1·10^8 M^−1 at 0.15 NaCl) when quin 2 is the chelator. The exact concentration of the chelator solution (in the range of 25-30 μM) was calculated from the absorbance at 239.5 nm in the presence of excess calcium (using ε239.5=4.2×10^4 L mol^−1 cm^−1 for quin 2). Lyophilised protein was dissolved in calcium free (<1 μM Ca^2+) chelator solution at a concentration of 25-30 μM. The absorbance at 263 nm (A263) was recorded for the protein/chelator solution using a UV/Vis 920 spectrophotometer (GBC Scientific Equipment Pty Ltd, Victoria, Australia). Calcium solution (3 mM CaCl2 in 2 mM Tris/HCl, pH 7.5, with or without 0.15 M NaCl) was added in portions of 4 μl. A263 was recorded after each calcium addition.
A more concentrated Ca^2+ stock (10 mM) was used at the end of the titrations of the proteins in 0.15 M NaCl. The data was analysed by least squares fitting directly to the measured quantity, absorbance versus total calcium concentration, using the CaLigator software (Andre and Linse, 2002).

For assay [2] the following is noted: 20° C.; cited from earlier work.
For assay [3] the following is noted: cited from earlier work.

B1: α-lac human: Native human α-lactalbumin purified from human milk (protein, UniProt P00709 20-142, looked up)
Alpha-lactalbumin: KQFTKCELSQLLKDIDGYGGIALPELICTMFHTSGYDTQAIVENNESTEYGLFQISNKLWCKSSQVPQSRNICDISCDKFLDDDITDDIMCAKKILDIKGIDYWLAHKALCTEKLEQWLCEKL
What is called Kd is the concentration at which binding is half-saturated. Turning to B1, the “factor of decrease of Ca2+ affinity between low and physiological ionic strength” value in assay [1] is given as 200. The “Ka, calcium association constant” value worked out at 8.3e+06 M⁻¹ in assay [1] (150 mM NaCl (physiological salt)); 8.3e+06 M⁻¹ in assay [1] (150 mM NaCl (physiological salt), listed as α-lactalbumin); 1.8e+09 M⁻¹ in assay [1] (low salt (no added salt)); 1.8e+09 M⁻¹ in assay [1] (low salt (no added salt), listed as α-lactalbumin). Further, the dissociation constant Kd in assay [1] (low salt) turned out to be 0.56 nM; in assay [1] (physiological salt, 0.15 M NaCl) it was 120 nM. Further, the “Ka for Na+” value in assay [2] is 100 M⁻¹. Moreover, the “Ka” value in assay [3] (5 mM Tris, 0.1 mM EDTA, pH 7.2, 298 K, CD 270 nm) is 3e+08 M⁻¹; in assay [3] (H2O, 100 mM KCl, pH 7, 294 K, EDTA, 43Ca-NMR), 2e+07 M⁻¹.
